Source: patent US20050281828A1 (published 2005)
Substitutions are numbered along the chain they refer to.

Tests used:
[1] = target: T1, recombinant human L-SIGN (L-SIGNFc fusion protein) (human, UniProt Q9H2X3 78-399); assay: ELISA, recombinant L-SIGN
T1 construct: also called DC-SIGNR; human DC-SIGNR; not shown: Fc part of the fusion
T1 sequence (looked up): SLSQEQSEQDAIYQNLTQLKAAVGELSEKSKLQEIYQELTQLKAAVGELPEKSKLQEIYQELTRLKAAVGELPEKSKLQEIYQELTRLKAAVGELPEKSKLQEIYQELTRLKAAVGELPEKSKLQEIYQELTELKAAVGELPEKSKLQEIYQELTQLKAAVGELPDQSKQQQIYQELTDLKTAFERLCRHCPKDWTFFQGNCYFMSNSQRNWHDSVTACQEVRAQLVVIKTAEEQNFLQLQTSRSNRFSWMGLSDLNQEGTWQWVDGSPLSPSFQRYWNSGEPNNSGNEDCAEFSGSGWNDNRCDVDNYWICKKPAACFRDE

[2] = target: T2, recombinant human DC-SIGN (human, UniProt Q9NNX6 62-404); assay: ELISA, recombinant DC-SIGN
T2 construct: Added to plates coated with anti-human Fc, so probably an Fc fusion
T2 sequence (looked up): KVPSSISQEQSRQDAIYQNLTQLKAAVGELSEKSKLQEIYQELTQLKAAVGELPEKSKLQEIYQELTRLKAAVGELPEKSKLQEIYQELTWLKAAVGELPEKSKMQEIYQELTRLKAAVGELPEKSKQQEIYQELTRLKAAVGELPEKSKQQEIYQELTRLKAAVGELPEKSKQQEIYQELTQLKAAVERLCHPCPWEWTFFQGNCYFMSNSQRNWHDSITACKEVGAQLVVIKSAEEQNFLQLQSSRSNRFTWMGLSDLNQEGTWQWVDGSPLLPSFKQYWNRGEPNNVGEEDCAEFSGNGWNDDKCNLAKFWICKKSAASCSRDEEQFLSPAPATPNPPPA

[3] = target: T3, L-SIGN receptor on cells (K562/L-SIGN) (human, UniProt Q9H2X3 1-399); assay: flow cytometry, K562/L-SIGN cells
T3 construct: whole, on cells; also called L-SIGN on LSECs
T3 sequence (looked up): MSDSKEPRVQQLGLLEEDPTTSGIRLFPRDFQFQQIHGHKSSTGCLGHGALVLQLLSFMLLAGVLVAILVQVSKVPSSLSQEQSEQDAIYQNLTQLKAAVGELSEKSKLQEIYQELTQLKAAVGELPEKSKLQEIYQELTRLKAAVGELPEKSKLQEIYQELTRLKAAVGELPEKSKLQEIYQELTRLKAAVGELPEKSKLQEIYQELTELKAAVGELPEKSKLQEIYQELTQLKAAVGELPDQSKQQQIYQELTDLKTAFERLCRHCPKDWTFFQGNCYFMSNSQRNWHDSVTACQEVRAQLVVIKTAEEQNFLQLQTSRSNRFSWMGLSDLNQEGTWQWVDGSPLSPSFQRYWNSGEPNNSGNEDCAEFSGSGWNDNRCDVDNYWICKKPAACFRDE

[4] = target: T4, DC-SIGN receptor on cells (K562/DC-SIGN) (human, UniProt Q9NNX6 1-404); assay: flow cytometry, K562/DC-SIGN cells
T4 construct: whole, on cells
T4 sequence (looked up): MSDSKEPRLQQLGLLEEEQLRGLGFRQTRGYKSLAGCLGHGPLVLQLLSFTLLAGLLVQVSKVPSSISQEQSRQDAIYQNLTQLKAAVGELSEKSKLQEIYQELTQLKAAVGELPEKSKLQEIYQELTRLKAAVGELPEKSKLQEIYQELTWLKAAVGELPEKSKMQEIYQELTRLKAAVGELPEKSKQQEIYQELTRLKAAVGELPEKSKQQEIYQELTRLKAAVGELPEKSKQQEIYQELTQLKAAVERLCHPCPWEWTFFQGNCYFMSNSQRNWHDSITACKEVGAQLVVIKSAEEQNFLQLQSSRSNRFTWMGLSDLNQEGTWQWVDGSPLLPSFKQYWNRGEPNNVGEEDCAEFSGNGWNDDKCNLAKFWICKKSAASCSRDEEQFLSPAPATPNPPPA

B1: IgG1k clone A10 (Fab, V domains shown)
VH: EVQLQQSGPELEKPGASVKISCKASGYSFTGYNMNWVKQSNGKSLEWIGNIDPYYGDITYNQKFKGKATLTVDKSSSTAYMQLKSLTSEDSAVYYCARTATALYTMDYWGQGTSVTVSS
VL: EIVLTQSPAIMSASLGERVTMTCTASSSVSSSYLHWYQQKPGSSPKLWIYSTSNLASGVPARFSGSGSGTSYSLTISSMEAEDAATYYCHQYHRSPQTFGGGTKLEIK
notes: phage-Fab screening
- OD405 [1]: 2.9 OD405
- OD405 [2]: 0.1 OD405
- Geo. Mean Fluorescence [3]: 21.3

B2: IgG1k clone B7 (Fab, V domains shown)
VH: B1 VH with N41S, I51F, D57V
VL: EIVLTQSPAIMSASPGEKVTMTCRASSSVSSSYLHWYQQKSGASPKLWIYSTSNLASGVPARFSGSGSGTSYSLTISSVEAEDAATYYCQQYSGYPLTFGSGTKLEIK
notes: phage-Fab screening
- OD405 [1]: 2.7 OD405
- OD405 [2]: 0.1 OD405
- Geo. Mean Fluorescence [3]: 90.9

B3: L-SIGN Fab clone C7 (soluble, purified) (Fab, V domains shown)
VH: B1 VH with N41S, I51F, D57V
VL: B2 VL
- binding result [4]: no binding (tested: 20 ug/ml)

B4: IgG1k clone C7 (phage-Fab screening) (Fab, V domains shown)
VH: B1 VH with N41S, I51F, D57V
VL: B2 VL
- OD405 [1]: 3.5 OD405
- OD405 [2]: 0.1 OD405
- Geo. Mean Fluorescence [3]: 101

B5: IgG1k clone D8 (Fab, V domains shown)
VH: B1 VH with D57G, I58S, T59S
VL: B2 VL with L97G, S101G
notes: phage-Fab screening
- OD405 [1]: 2.1 OD405
- OD405 [2]: 0.1 OD405
- Geo. Mean Fluorescence [3]: 17.3
